# B1: GII.4 HuNoV P protein (domain or fragment)
# chain: KPFTVPILTVEEMTNSRFPIPLEKLFTGPSGAFVVQPQNGRCTTDGVLLGTTQLSPVNICTFRGDVTHIAGSRNYTMNLASLNWNNYDPTEEIPAPLGTPDFVGKIQGLLTQTTKGDGSTRGHKATVYTGSAPFTPKLGSVQFSTDTENDFETHQNTKFTPVGVIQDGSTTHRNEPQQWVLPSYSGRNVHNVHLAPAVAPTFPGEQLLFFRSTMPGCSGYPNMDLDCLLPQEWVQHFYQEAAPAQSDVALLRFVNPDTGRVLFECKLHKSGYVTVAHTGQHDLVIPPNGYFRFDSWVNQFYTLAPM
# Target: recombinant C2JX39 (DNA topoisomerase 4 subunit A) (Lactobacillus rhamnosus YQ001)
# Test: ELISA; attachment factors coated at 280.0 pmol/mL in carbonate-bicarbonate buffer overnight at 4 C, blocked with 1.0% BSA; P protein (GI.1 or GII.4) 10.0 ug/mL, 1 h at 37 C; detected with anti-HuNoV monoclonal antibodies; positive when S/N >= 2.0
# Conditions: both partners purified
binder,measurement,value
B1,S/N ratio,16.9
